Results on 1 molecule are retold here after publication PMC2650391 (Molecular cell, 2009).

For this assay, the system named is H3K4me peptides / ING4 PHD finger. In words: Biotinylated histone peptide pull-down, Western analysis. The format is binding. The following applies: full-length vs PHD-deleted ING4.

B1: ING4ΔPHD: ING4 derivative lacking the PHD finger (aa 1–194) (protein)
chain: MAAGMYLEHYLDSIENLPFELQRNFQLMRDLDQRTEDLKAEIDKLATEYMSSARSLSSEEKLALLKQIQEAYGKCKEFGDDKVQLAMQTYEMVDKHIRRLDTDLARFEADLKEKQIESSDYDSSSSKGKKKGRTQKEKKAARARSKGKNSDEEAPKTAQKKLKLVRTSPEYGMPSVTFGSVHPSDVLDMPVDPN
modifications: left off: GST (inferred from the vector pGEX6P1), end not stated, state not stated
Turning to B1, the “recognition of methylated H3K4 peptides in pull-down” value is listed as “does not”.
